Assay [1] deals with bovine TGF-β RI extracellular domain fused to the human IgG1 Fc domain (bovine) (UniProt O46680).
Assay [2] has as its target bovine TGF-β RII extracellular domain fused to the human IgG1 Fc domain (bovine).
The target in assay [3] is bovine TGF-β RI extracellular domain fused to the human IgG1 Fc domain (bovine) (UniProt O46680). Put plainly: ELISA; competition: TGF-β coated at 400 ng/mL; increasing concentrations of FhTLM incubated with the Receptor-Fc fusion in solution at 37°C for 1 hr, then added to the plate. In general terms: ELISA stands for enzyme-linked immunosorbent assay.
Assay [4] addresses bovine TGF-β RII extracellular domain fused to the human IgG1 Fc domain (bovine). Described as above.
Assay [5] addresses bovine TGF-β RI extracellular domain fused to the human IgG1 Fc domain (bovine) (UniProt O46680). Put plainly: ELISA; competition: FhTLM coated at 400 ng/mL; increasing concentrations of TGF-β incubated with the Receptor-Fc fusion in solution at 37°C for 1 hr, then added to the plate.
The target in assay [6] is bovine TGF-β RII extracellular domain fused to the human IgG1 Fc domain (bovine). Described as above.

Sequence of bovine TGF-β RI extracellular domain fused to the human IgG1 Fc domain (bovine) (O46680 30-122): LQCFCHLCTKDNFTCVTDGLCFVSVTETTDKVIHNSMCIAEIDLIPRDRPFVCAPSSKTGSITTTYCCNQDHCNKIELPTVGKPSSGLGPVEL

Regarding “F. hepatica TGF-like molecule, FhTLM (recombinant) (ligand)”, the percent of primary bovine PBMCs positive for pSmad2/3 co-localised with the nucleus, 3 to 4 hrs with FhTLM in assay [1] and in assay [2] was 15.8 % of cells throughout. For the same substance, in assay [3], the percent reduction of the binding of TGF-β RI-Fc to immobilised TGF-β1 came to 42%. The substance further showed a percent reduction of the binding of TGF-β RII-Fc to immobilised TGF-β1 in assay [4] of 46%.
For the substance human TGF-β1 (ligand), the percent reduction of the binding of TGF-β RI-Fc (printed as TGF-β RII-Fc a second time) to immobilised FhTLM in assay [5] amounted to 22%. The substance further gave a percent reduction of the binding of TGF-β RII-Fc to immobilised FhTLM in assay [6] of 50%.

For the origin of these results see PMC5091765.
